The IC50 is the concentration needed to halve the response being measured. Low readings indicate greater potency, high ones weaker potency.

Test in all cases: ELISA
A general note: In an ELISA, binding on a coated surface is turned into a signal by an enzyme label.

In experiment [1] the target is HLA-DR (DRA1*01:01 / DRB1*01:01), soluble knob-into-hole Fc heterodimer (human).
The target in experiment [2] is HLA-DR (DRA1*01:01 / DRB1*13:02), soluble knob-into-hole Fc heterodimer (human).
The target of experiment [3] is HLA-DR (DRA1*01:01 / DRB1*13:01), soluble knob-into-hole Fc heterodimer (human).
The target in experiment [4] is HLA-DR (DRA1*01:01 / DRB1*13:02), soluble knob-into-hole Fc heterodimer (human). The source holds these as a separate data set.
A further experiment deals with The majority of HLA-DR.
Experiment [5] has as its target HLA-DR (DRA1*01:01 / DRB1*13:01), soluble knob-into-hole Fc heterodimer (human). This is another data set of the same source.

Read-outs that look alike come from different tables or passages of the source. A value given as a limit tells only on which side of the number the result lay.

“SARS-CoV-2 RBD peptide RBD487-501 (from UniProt P0DTC2 487-501)” registered an IC50 in experiment [1] of 293 nM.

For “SARS-CoV-2 RBD peptide RBD491-505 (from UniProt P0DTC2 491-505)”, in experiment [1], the IC50 is 152 nM. This IC50 lies about 1.9-fold lower than the previous one.

On to “biotin-labeled human Class II-associated Invariant Chain Peptide (Bio-CLIP)”, for which the affinity is 4 µM in experiment [2]; 300 nM in experiment [3]; below 300 nM in experiment [4]; 0 to 25 nM with The majority of HLA-DR; below 300 nM in experiment [5].

For the origin of these results see doi:10.1101/2025.06.05.658000.
